# Test results from publication PMC8644300.
# What was measured:
# [1] = biological target: K+ exchange antiporter 3 (KEA3), native KEA3.2 isoform (Arabidopsis thaliana (endogenous in Col-0)) (UniProt Q9M0Z3); assay: native gel or EMSA; Blue Native PAGE of thylakoid membranes solubilized with 0.7% β-DM, blotted and detected with the antibody against the KEA3 C-terminus; native protein marker for size
# [2] = biological target: recombinant KEA3 C-terminus (Arabidopsis thaliana); assay: native gel or EMSA; native gel electrophoresis (without SDS) of the SEC fraction with the KEA3 C-terminus, in phosphate-buffered saline pH 8
# [3] = biological target: recombinant KEA3 C-terminus (Arabidopsis thaliana); assay: SEC; Superdex 200 Increase 10/300 GL, calibrated with low and high molecular weight kits; Ni-NTA eluate treated with 2 mM EDTA to remove residual Ni2+ before the run
stoichiometry N [1],stoichiometry N [2],stoichiometry N [3],Substance
2,–,–,"K+ exchange antiporter 3 (KEA3), native KEA3.2 isoform (from UniProt Q9M0Z3-1 73-776) (natural protein)"
–,2,2,recombinant KEA3 C-terminus (domain or fragment)
